In patent publication US20220233705A1, “COMBINED THERAPIES OF ACTIVATABLE IMMUNE CHECKPOINT INHIBITORS AND CONJUGATED ACTIVATABLE ANTIBODIES” (CYTOMX THERAPEUTICS, INC., priority 2019, published 2022):

B1: anti-CD166 ADC (conjugate)
VH: QITLKESGPTLVKPTQTLTLTCTFSGFSLSTYGMGVGWIRQPPGKALEWLANIWWSEDKHYSPSLKSRLTITKDTSKNQVVLTITNVDPVDTATYYCVQIDYGNDYAFTYWGQGTLVTVSS
VL: DIVMTQSPLSLPVTPGEPASISCRSSKSLLHSNGITYLYWYLQKPGQSPQLLIYQMSNLASGVPDRFSGSGSGTDFTLKISRVEAEDVGVYYCAQNLELPYTFGQGTKLEIK

Columns and labels:
dendritic cells (MoDCs) = assay: Dendritic cell maturation markers by flow cytometry; format: cell-based, human; parameters: dose or concentration left out as unconfirmed; conditions: 48 hours, compared to untreated cells
Method: In this study, dendritic cells were cultured with […] anti-CD166 antibody conjugated to DM4 (CD166-DM4 ADC) or a dendritic cell maturation cocktail (Stem Cell Technology DC maturation kit (#10989)) for 48 hours. […] The MoDCs were then assessed for maturation by flow cytometric measurement of dendritic cell maturation markers CD80 (2D10 antibody, BioLegend), CD83 (HB15e antibody, BioLegend), HLA-DR (L243 antibody, BioLegend), and CD86 (IT2.2 antibody, BioLegend).

HCC1806 cells = assay: Immunogenic cell death markers in HCC1806 cells; format: cell-based, human; conditions: HCC1806, 48 hours; for secreted HMGB1: ELISA
Method: (§1) ICD can be measured by markers such as the expression of calreticulin on the surface of cancer cells and secretion of HMGB1. In this exemplary study, A375 cells (ATCC) derived from a human malignant melanoma were cultured in RPMI-1640™ medium with 10% (v/v) fetal bovine serum for 48 hours in the presence of the indicated amount of drug. HCC1806 cells (ATCC) derived from human breast carcinoma were cultured in DME medium for 48 hours in the presence of the indicated amount of drug. CT26 cells and CT26 huCD166 cells (CT26 cells expressing human CD166 polypeptide as discussed herein) were cultured in RPMI-1640™ medium with 10% (v/v) fetal bovine serum for 72 hours in the presence of the indicated amount of drug. Following incubation, calreticulin expression was detected by flow cytometry using a FITC conjugated calreticulin antibody (Novus Bio, clone 1G6A7; #NBP1-47518F). HMGB1 protein was detected by ELISA (Tecan HMGB1 ELISA kit, #NC9959947).

CT26 huCD166 cells = assay: Calreticulin surface expression on CT26 huCD166 cells; format: cell-based, mouse; conditions: CT26 huCD166, 72 hours
Method: as §1

CT26 cells = assay: Calreticulin surface expression on CT26 cells; format: cell-based, mouse; conditions: CT26, 72 hours
Method: as §1

A375 cells = assay: Immunogenic cell death markers in A375 cells; format: cell-based, human; conditions: A375, 48 hours; for secreted HMGB1: ELISA
Method: as §1

activated human T cells = assay: Cytotoxicity towards activated T cells (CellTiter-Glo)
[1] = tested on: allogenic CD4+ T cells co-cultured with MoDCs; format: cell-based, human
[2] = tested on: human dendritic cells (MoDC); assay: Cytotoxicity towards fully activated MoDC (CytoTox-Glo); conditions: 48 hours

Row | Molecule | expression of CD83 (dendritic cells (MoDCs)) | expression of CD86 (dendritic cells (MoDCs)) | expression of calreticulin (CRT) (HCC1806 cells) | secreted HMGB1 (HCC1806 cells) | surface expression of calreticulin (CRT) (CT26 huCD166 cells) | surface expression of calreticulin (CRT) (CT26 cells) | expression of calreticulin (CRT) (A375 cells) | secreted HMGB1 (A375 cells) | cytotoxic activity towards activated T cells (activated human T cells; 72 hours treatment) | doses at which cytotoxicity was observed (activated human T cells; activated T cells, 72 hours) | production of IL-2 by allogeneic T cells [1] | cytotoxic activity towards MoDCs [2] | doses at which cytotoxicity was observed ([2]; fully activated MoDC)
1 | COc1cc2cc(c1Cl)N(C)C(=O)C[C@H](OC(=O)[C@H](C)N(C)C(=O)CCC(C)(C)S)[C@]1(C)O[C@H]1[C@H](C)[C@@H]1C[C@@](O)(NC(=O)O1)[C@H](OC)/C=C/C=C(\C)C2 [free DM4, DM4, reference compound] | slightly increased | slightly increased | increased expression | increased amounts | increased surface expression | increased surface expression | increased expression | increased amounts | – | – | – | – | –
2 | B1 | slightly increased | slightly increased | increased expression | increased amounts | increased surface expression | increased surface expression | increased expression | increased amounts | minimal cytotoxic activity | above 10 nM | slightly increase | minimal cytotoxic activity | above 10 nM
